Molecular target: T1, soluble recombinant human IL-1RI (corresponding to the extracellular domain of IL-1RI) (human, UniProt P14778 18-336)
T1 construct: extracellular domain; also called interleukin-1 receptor I; IL-1R1 receptor
T1 sequence (looked up): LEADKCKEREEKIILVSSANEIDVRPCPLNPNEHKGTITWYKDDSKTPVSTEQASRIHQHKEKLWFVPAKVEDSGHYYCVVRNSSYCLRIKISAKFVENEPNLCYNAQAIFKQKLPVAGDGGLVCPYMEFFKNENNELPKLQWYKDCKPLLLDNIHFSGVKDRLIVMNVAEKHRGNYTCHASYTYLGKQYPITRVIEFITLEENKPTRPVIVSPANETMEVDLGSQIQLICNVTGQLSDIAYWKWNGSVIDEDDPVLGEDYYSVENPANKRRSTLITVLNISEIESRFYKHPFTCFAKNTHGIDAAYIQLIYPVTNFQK
Test: Kd to the IL-1R1 receptor as listed in Table 15; method not restated, values are the SPR values of Table 7 rounded

Kd: 0.64 nM
B1: P02 (designed binder)
chain: APVRSLAFRIWDVNQKTFYLRNNQLVAGYLQGPNVNLEEKIDVSFVQGEESNDKIPVALGIHGGKMCLSCVKSGDETRLQLEAVDPKNYPKKKMEKRFVFNKIEINNKLSFESAACPGWFLCTAMEADQPVSLTNMPDEGVMVTKFYMQFVSS
notes: IL-1β/IL-1Ra chimera expressed in E. coli; also called P02 domain; chimeric cytokine domain P02

From patent publication US20140341843A1 (ELEVEN BIOTHERAPEUTICS, published 2014)
